From patent US5756291
Where two headings read alike, the source gives them in different places.

Columns and labels:
[1] = molecular target: kallikrein (UniProt P03952+P03952); assay: filter; details: ~1 uM protein
[2] = molecular target: thrombin (alpha, Factor IIa) (Homo sapiens) (UniProt P00734+P00734); assay: filter

kallikrein, sequence (P03952 20-390, chain 1 of 2): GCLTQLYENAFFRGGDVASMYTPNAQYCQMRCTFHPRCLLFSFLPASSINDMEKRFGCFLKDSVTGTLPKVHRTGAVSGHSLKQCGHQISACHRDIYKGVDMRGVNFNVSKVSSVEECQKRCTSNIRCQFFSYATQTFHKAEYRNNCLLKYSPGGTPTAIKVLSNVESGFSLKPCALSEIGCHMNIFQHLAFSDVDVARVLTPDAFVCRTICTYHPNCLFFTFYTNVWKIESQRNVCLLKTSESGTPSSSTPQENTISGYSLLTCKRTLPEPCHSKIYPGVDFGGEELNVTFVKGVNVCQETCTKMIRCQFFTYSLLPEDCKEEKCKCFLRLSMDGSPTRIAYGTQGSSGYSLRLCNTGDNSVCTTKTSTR
kallikrein, sequence (P03952 391-638, chain 2 of 2): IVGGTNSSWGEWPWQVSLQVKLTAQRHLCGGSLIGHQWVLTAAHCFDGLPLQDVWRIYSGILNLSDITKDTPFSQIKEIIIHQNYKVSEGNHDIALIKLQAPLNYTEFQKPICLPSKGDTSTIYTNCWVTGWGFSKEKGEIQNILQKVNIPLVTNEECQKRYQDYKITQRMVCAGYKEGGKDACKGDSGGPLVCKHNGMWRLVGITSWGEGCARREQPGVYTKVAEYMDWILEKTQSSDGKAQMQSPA

Q: For “CGGGGAGAGGTTGGTGTGGTTGGCAATGGCTAGAGTAGTGACGTTTTCGCGGTGAGGTCC”, which binding signal [1] is on record?
A: < 0.5 % bound

Q: With “TAGAATACTCAAGCTTCGACGNNNNNNNNNNNNNNNNNNNNAGTTTGGATCCCCGGGTAC [Round 6 pool prepared with thymidine]” as the sequence, how does the Kd [2] read?
A: > 10 µM

Q: For “TAGAATACTCAAGCTTCGACGNNNNNNNNNNNNNNNNNNNNAGTTTGGATCCCCGGGTAC [pentynyl-dU Round 6 pool]”, which Kd ([2]; 5-(1-pentynyl)-dU replacing T in amplified region) is on record?
A: 0.4 µM

Q: Which Kd ([2]; 5-(1-pentynyl)-dU replacing T in amplified region, unit micro sign lost in print) does the source give for “TAGAATACTCAAGCTTCGACGNNNNNNNNNNNNNNNNNNNNAGTTTGGATCCCCGGGTAC [unselected pentynyl-dU pool]” here?
A: > 10 µM
